Target: human VAP-1 expressed on the surface of transfected Ax rat endothelial cells (human) (UniProt Q16853)
Test: cell-based or functional assay

Sequence of human VAP-1 expressed on the surface of transfected Ax rat endothelial cells (human) (Q16853 whole entry): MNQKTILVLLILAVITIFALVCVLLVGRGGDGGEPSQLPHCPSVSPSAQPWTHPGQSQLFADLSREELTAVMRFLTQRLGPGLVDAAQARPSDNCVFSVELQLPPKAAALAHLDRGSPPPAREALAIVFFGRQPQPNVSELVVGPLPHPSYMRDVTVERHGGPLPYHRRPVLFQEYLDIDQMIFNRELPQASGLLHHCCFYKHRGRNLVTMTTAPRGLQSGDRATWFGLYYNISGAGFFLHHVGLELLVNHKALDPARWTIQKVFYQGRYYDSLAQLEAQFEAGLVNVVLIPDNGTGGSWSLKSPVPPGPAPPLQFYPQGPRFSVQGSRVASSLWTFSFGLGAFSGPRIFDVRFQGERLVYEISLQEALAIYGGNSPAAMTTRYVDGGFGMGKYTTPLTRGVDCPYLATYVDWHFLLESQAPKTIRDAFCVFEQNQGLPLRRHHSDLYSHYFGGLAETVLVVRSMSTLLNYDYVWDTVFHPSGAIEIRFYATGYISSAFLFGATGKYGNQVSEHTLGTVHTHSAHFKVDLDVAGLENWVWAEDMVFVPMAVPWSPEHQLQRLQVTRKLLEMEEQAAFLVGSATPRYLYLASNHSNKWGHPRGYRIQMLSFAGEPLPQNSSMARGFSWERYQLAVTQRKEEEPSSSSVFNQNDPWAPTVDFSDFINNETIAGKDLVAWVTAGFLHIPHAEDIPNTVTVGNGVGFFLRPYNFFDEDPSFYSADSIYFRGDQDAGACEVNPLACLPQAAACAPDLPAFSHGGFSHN

migration of human PBMC through a monolayer of Ax endothelial cells expressing human VAP-1 (in vitro transmigration assay): 1
Substance: BTT-1002, chimeric anti-VAP-1 monoclonal antibody
